In doi:10.1101/2025.08.20.671286 one finds stoichiometry N data, which are given here for one substance.

In the test the target is apoptosis-inducing factor, mitochondrial (AIFM1) (human) (UniProt O95831). Description: cross-linking.

Regarding “apoptosis-inducing factor, mitochondrial (AIFM1) (from UniProt O95831 103-613) (natural protein)”, the stoichiometry N (commonly the number of molecules, sites or subunits per partner or assembly) was found to be 2.
